Data reported in patent US11078246B2, “Peptides binding to Bfl-1” (Dana-Farber Cancer Institute, Inc., priority 2015, dated 2021).

Legend:
Format in all cases: binding
tBID/HA-BFL-1ΔC C4S/C19S = biological target: T1, tBID/HA-BFL-1ΔC C4S/C19S (Homo sapiens, UniProt Q16548, C19S/C4S); experiment: Competition with tBID in 293T lysates (HA immunoprecipitation); conditions: 5 μM biotinylated peptide, 0.25 μM tBID, 6 h
T1 construct: cDNA encoding BFL-1ΔC (aa 1-153) was cloned into the pET19b expression vector; expressed in transfected cells; host or cells: 293T
T1 sequence (Q16548 1-153 C4S/C19S): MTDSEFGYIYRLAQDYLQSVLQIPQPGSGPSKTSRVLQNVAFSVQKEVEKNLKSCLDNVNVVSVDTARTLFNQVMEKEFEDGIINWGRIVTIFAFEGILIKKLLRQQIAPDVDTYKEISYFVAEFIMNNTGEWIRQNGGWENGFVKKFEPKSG
Procedure: Protein concentration of the soluble fraction was measured using a BCA kit according to manufacturer's instructions (Thermo Scientific). […] After 24 h, cells were trypsinized, washed with PBS, lysed in 1% CHAPS buffer, and the supernatant collected for protein concentration determination by BCA kit. […] Cells were harvested and lysed as above, and incubated overnight with anti-HA agarose beads (Pierce). The beads were washed 3 times with lysis buffer, eluted by boiling in LDS buffer, and subjected to western analysis with HA and biotin antibodies. […] Biotin capture was accomplished by incubating the mixture with high-capacity SA agarose (Thermo Scientific) for 2 h at 4° C., followed by centrifugation and washing the pelleted beads with 3×1 mL lysis buffer.

tBID/FLAG-MCL-1 = biological target: T2, tBID/FLAG-MCL-1 (Homo sapiens, UniProt Q07820); experiment: Competition with tBID in 293T lysates (FLAG immunoprecipitation); conditions: 5 μM biotinylated peptide, non-covalent
T2 construct: expressed in transfected cells; host or cells: 293T
Procedure: (§1) 293T cells were maintained in DMEM containing 10% FBS and penicillin/streptomycin, and transfections performed with 2 μg pCMV plasmid containing HA-BFL-1ΔC C4S/C19S using X-tremeGENE 9 (Roche). For lysate experiments, cells were trypsinized 24 hours post-transfection, washed with PBS, and lysed by incubation with 1% CHAPS lysis buffer (150 mM NaCl, 50 mM Tris pH 7.4, 100 mM DTT). Protein concentration of the soluble fraction was measured using a BCA kit according to manufacturer's instructions (Thermo Scientific). […] Samples were then boiled in LDS buffer and subjected to western analysis using 1:1000 dilutions of HA (Sigma-Aldrich. #12CA5) and biotin (Abcam, #53494) antibodies. To evaluate the capacity of biotinylated SAHBs to compete with tBID for interactions with BFL-1 and MCL-1, 293T cells were transfected with either HA-BFL-1ΔC C4S/C19S or FLAG-MCL-1 in the p3XFLAG-CMV-10 vector (Sigma) as above. After 24 h, cells were trypsinized, washed with PBS, lysed in 1% CHAPS buffer, and the supernatant collected for protein concentration determination by BCA kit. […] The mixtures were then subjected to HA or FLAG (Sigma-Aldrich, F7425) immunoprecipitation, followed by western analysis using 1:1000 dilutions of HA, FLAG, biotin, and BID (Santa Cruz sc-11423) antibodies. […] Cells were harvested and lysed as above, and incubated overnight with anti-HA agarose beads (Pierce). […]

MCL-1 = biological target: T3, MCL-1 (Homo sapiens, UniProt Q07820); experiment: SA pull-down from A375P lysates, MCL-1 western; conditions: A375P lysate, biotinylated peptides
T3 construct: we incubated A375P lysates with the corresponding biotinylated BIM SAHBs; endogenous in cells; host or cells: A375P melanoma cell lysate
Procedure: as §1

T2 sequence (Q07820 whole entry): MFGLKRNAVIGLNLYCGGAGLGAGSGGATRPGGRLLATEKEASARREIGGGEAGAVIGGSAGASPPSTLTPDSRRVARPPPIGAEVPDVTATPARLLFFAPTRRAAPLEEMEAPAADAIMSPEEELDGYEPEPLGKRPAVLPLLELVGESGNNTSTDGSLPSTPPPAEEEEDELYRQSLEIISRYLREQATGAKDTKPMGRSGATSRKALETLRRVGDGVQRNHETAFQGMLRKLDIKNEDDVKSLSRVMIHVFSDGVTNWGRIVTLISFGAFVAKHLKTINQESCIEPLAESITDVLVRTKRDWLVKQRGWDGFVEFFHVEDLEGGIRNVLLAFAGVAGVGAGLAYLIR

Substance: BIM SAHBA: stapled BIM BH3 peptide (aa 147-166) lacking the acrylamide-based warhead
- competition with tBID for HA-BFL-1 binding (tBID/HA-BFL-1ΔC C4S/C19S): incapable of competing with tBID
- competition with tBID for FLAG-MCL-1 (tBID/FLAG-MCL-1): equally effective
- binding to MCL-1 (MCL-1): equivalent binding
